Data on 13 sequences can be found in the DeepSol protein solubility set.

The data set is described as follows: soluble on expression in E. coli; label from the status in PepcDB or PDB records.
Regarding “MHDHMITFQLATHFLSRIALRLEYLFKTINEACNESHEVIHRFALKNIIEIVEIVEKPELKSRFIKELIRIEHVLKKANLLNHSELFDDLETQIHVLNHVPGRFSNKIHDDEFLKTLRQIHHPNTKECEFNSPHLVLWFDSDPLMRQKTISQWVSCLKDLEDTVKIYLSLLRGVTQYTPIRANNGFYQHSLSPKSLNHLILLRIDKKLKMIPKIQLGHHSLTIRLYELVTGQEIRDKTIEMEIAFCQI”, the “soluble on expression in E. coli” value is given as “not soluble”.

“MGSDKIHHHHHHMQFADFWYIVALSNQLQPNKVLPRTVLGEWLAIFRGEDGQPVALRDRCLHRNSRLSSGKICNGALQCPYHGWVYDGVGNVIAVPAEGNDFKPSPQRRAKCYATKEQDGYVYVRLADTPSVDFEPFSMPHYGQTGWETVRVINRFANNVTNCAENFIDIPHTAFVHPGVFRTSRQQKLEMTVERWNGSVLVEYRNENSNLGWYSRFLNLQSAEIKHSDRFYMPNITSVEYKMARNRHLFITSQSIPETDNSTLVYTDVTYNYGIWNKLARPFVRWTAQHIIRQDVEILGIQGEAIAKYGTQFYNTPADTIHIFVESIMAAISRGEDPRLLPNQSVKVTFWV”: the “soluble on expression in E. coli” value was “not soluble”.

Take “MQIYTADGKLIGEVGEQRRIPVKLADVPQRLIDAFLATEDSRFYDHHGLDPIGIARALFVAVSNGGASQGASTITQQLARNFFLTSEKTIIRKAREAVLAVEIENTLNKQEILELYLNKIFLGYRSYGVAAAAQTYFGKSLNELTLSEMAIIAGLPKAPSTMNPLYSL”: the “soluble on expression in E. coli” value was “not soluble”. With “MGSDKIHHHHHHMTDLIYNDPDFVQFYDIENQDGRADFDYCVRLARDGGSVLDLGCGTGQLAAEMAQGCNVTGVDPASAMLDVARRRTGGDKVDWVVADARTVRLGRRFDLVLLTGHVFQVFLTDEDQRAVLRTIAEHLGPGGRFIFDTRNPAVEAWLEWTPQRSERMVEHPSLGTVRAWYDADWDAASAVVTYSTFYEIPGGRPILGAESKIAFPKKQDLAGMLDDAGLLVEQWLGDWQGEPYADTSPEIIPIGRLR” the entry was “not soluble”; with “MGSDKIHHHHHHMSIGIVIASHGEFAAGIKQSGSMIFGEQEKVQVVTFMPSEGPTDLHAKIEAAIATFDAEDEVLVLADLWSGSPFNQASAVMGENPERKIAIITGLNLPMLIQAYTERMMDASAGVDKVVANIMKEAKGGIKVLPEELQPAEETAVAAAPAAVQGAIPEGTVIGDGKIKINLARIDSRLLHGQVATAWTPDSRANRIIVVSDTVSKDELRKKLIEQAAPTGVKANVIPIKKMIEVAKDPRFGDTKALLLFETPQDALATIEGGVPIETLNVGSMAHSTGKTMLNKVLSMDKDDVATFEKLRDLGVKFDVRKVPADSKSDLFGLINKADVQ”, “not soluble”; with “MDEGIRASGGIRACQTGKQKQGRKRPVTGKKRIVVGMSGGVDSSVTAWLLKQQGHEVIGVFMQNWEDDNDDEYCSIKQDALDAMSVADIVGIDMEIVNFAKEYKDRVFSYFLKEYSAGRTPNPDVLCNAEIKFKAFLDYAMELGADCIATGHYARKLEQDGTHYLMKAVDHTKDQSYFLYRLQQHQLAKAIFPLGDIRKTEVRRLAEEAGLPTAAKKDSTGICFIGERPFREFLQRYLPTSPGQMVTPDGKVVGEHIGLMYYTLGQRKGLTIGGSRDGNGEPWFVAGKDIPGNKLIVVQGHDHPLLLKPTLSMADLSWTLPDAPAPGEYSAKNRYRMADAACTLSPIVDGQASLTFQEKQWAVTPGQSAVLYHGDICLGGGIIQLEHHHHHH”, “not soluble”.

Turning to “MSNSSAHSSFGTSNDSFSSVQSVILPPVGPFGQKKRTFEYIGVTLVVDKLKLAEWMNGIGKLFGSAELRDNVTNLHMQLVPVIDTLKKVSHLSSEKTKKEIMTLIEEYKTLVVVCENMLDRMEKSADFHSTDMLNDPVLEKQE”, the “soluble on expression in E. coli” value is “not soluble”. With “MLGKGGKRKFDEHEDGLEGKIVSPCDGPSKVSYTLQRQTIFNISLMKLYNHRPLTEPSLQKTVLINNMLRRIQEELKQEGSLRPMFTPSSQPTTEPSDSYREAPPAFSHLASPSSHPCDLGSTTPLEACLTPASLLEDDDDTFCTSQAMQPTAPTKLSPPALLPEKDSFSSALDEIEELCPTSTSTEAATAATDSVKGTSSEAGTQKLDGPQESRADDSKLMDSLPGNFEITTSTGFLTDLTLDDILFADIDTSMYDFDPCTSSSGTASKMAPVSADDLLKTLAPYSSQPVTPSQPFKMDLTELDHIMEVLVGS” the entry was “soluble”; with “MRTLAVISAGLSTPSSTRQIADSISEAVTAAVSARGEALSVSTIELSELIPDLMTAMTTRVHTTKLEEITSALSASDGLVVATPVFKASYTGLFKMFFDILDTDALTGMPTIIAATAGSARHSLVLDYALRPLLSYMRAVVVPTGVFAATEDFGGPEGAEFNKRIARAAGELASLIVEESGNVGLEHHHHHH”, “not soluble”; with “MSRSKKTRRISDIMPARKADKKPALPISNSKKRKPTRYELDVQAREEKKKRKHKGLPTGSRNVITEQKTASAKVKKDPRVGSRKKVPLMVEFVNKPEKGQMIKPVPLEPSNHATKATVSPEVELTQLENNECLNQLLDQLEAGKVLSTQDQQFVDECLDRVHELIIELGIEDDEENNEDLLLRQFETIDINKFK”, “not soluble”. Regarding “MYFLTSSLPTTLMNVALTSWARAFAINVFPQPGGPYKRTPFGGSIPTSSKSSGCLRGSSMASLNSCSCFFKPPISLYVTFGLSMTSNPSTVGSLDVGSISTTAIVLLEHHHHHH”, the “soluble on expression in E. coli” value was “not soluble”. In the case of “YPHHLGTSPRHPLNSGTEMAGGAWGRLACYLEFLKKEELKEFQLLLANKAHSRSSSGETPAQPEKTSGMEVASYLVAQYGEQRAWDLALHTWEQMGLRSLCAQAQEGAGHSPSFPYSPSEPHLGSPSQPTSTAVLMPWIHELPAGCTQGSERRVLRQLPDTSGRRWREISASLLYQALPSSPDHESPSQESPNAPTSTAVLGSWGSPPQPSLAPREQEAPGTQWPLDETSGIYYTEIREREREKSEKGRPPWAAVVGTPPQAHTSLQPHHHPWEPSVRESLCSTWPWKNEDFNQKFTQLLLLQRPHPRSQDPLVKRSWPDYVEENRGHLIEIRDLFGPGLDTQEPRIVILQGAAGIGKSTLARQVKEAWGRGQLYGDRFQHVFYFSCRELAQSKVVSLAELIGKDGTATPAPIRQILSRPERLLFILDGVDEPGWVLQEPSSELCLHWSQPQPADALLGSLLGKTILPEASFLITARTTALQNLIPSLEQARWVEVLGFSESSRKEYFYRYFTDERQAIRAFRLVKSNKELWALCLVPWVSWLACTCLMQQMKRKEKLTLTSKTTTTLCLHYLAQALQAQPLGPQLRDLCSLAAEGIWQKKTLFSPDDLRKHGLDGAIISTFLKMGILQEHPIPLSYSFIHLCFQEFFAAMSYVLEDEKGRGKHSNCIIDLEKTLEAYGIHGLFGASTTRFLLGLLSDEGEREMENIFHCRLSQGRNLMQWVPSLQLLLQPHSLESLHCLYETRNKTFLTQVMAHFEEMGMCVETDMELLVCTFCIKFSRHVKKLQLIEGRQHRSTWSPTMVVLFRWVPVTDAYWQILFSVLKVTRNLKELDLSGNSLSHSAVKSLCKTLRRPRCLLETLRLAGCGLTAEDCKDLAFGLRANQTLTELDLSFNVLTDAGAKHLCQRLRQPSCKLQRLQLVSCGLTSDCCQDLASVLSASPSLKELDLQQNNLDDVGVRLLCEGLRHPACKLIRLGLDQTTLSDEMRQELRALEQEKPQLLIFSRRKPSVMTPTEGLDTGEMSNSTSSLKRQRLGSERAASHVAQANLKLLDVSKIFPIAEIAEESSPEVVPVELLCVPSPASQGDLHTKPLGTDDDFWGPTGPVATEVVDKEKNLYRVHFPVAGSYRWPNTGLCFVMREAVTVEIEFCVWDQFLGEINPQHSWMVAGPLLDIKAEPGAVEAVHLPHFVALQGGHVDTSLFQMAHFKEEGMLLEKPARVELHHIVLENPSFSPLGVLLKMIHNALRFIPVTSVVLLYHRVHPEEVTFHLYLIPSDCSIRKELELCYRSPGEDQLFSEFYVGHLGSGIRLQVKDKKDETLVWEALVKPGDLMPATTLIPPARIAVPSPLDAPQLLHFVDQYREQLIARVTSVEVVLDKLHGQVLSQEQYERVLAENTRPSQMRKLFSLSQSWDRKCKDGLYQALKETHPHLIMELWEKGSKKGLLPLSS”, the “soluble on expression in E. coli” value is on record as “soluble”. Take “MTRPHQPRIDLNHGFLRFIRRNQVDRDEYNRVHEERKSEIRERIGSSDSSQDGEEKAQSNVYVPPHLRRQKKENEEKFSALKASRSQSQSDTGSEEGEGASGGGEASCPIQQKQKAFDENVRRQVRRRIERTHPTVDDICIVLANYSLQEAASKNSENSNEDLFELVLTLKSGEQKTIGVPRNTQAARLAKSLSREHHFSDSQCRNLRIFIEEQLELRFAREKSTATSSDASIPGSPTSSSESSIIEFSA”: the “soluble on expression in E. coli” value is on record as “not soluble”.
